Measured values taken from patent publication US6730828B1, “Isolated nucleic acids encoding a wheat glutathione transferase, plants transformed therewith and methods of use thereof” (Aventis Agriculture Limited, priority 1997, dated 2004).

Assays:
GST activity toward CDNB = format: biochemical
Method: (§1) The purified isoenzymes were assayed for GST activity toward herbicides using the HPLC-based assays described by Edwards R. and Cole D. J. (Pesticide Biochemistry and Physiology Vol. 54, pp96-104 (1996)) and the results are presented in Table 2. […] These isoenzymes had additional activities as glutathione peroxidases able to reduce linoleic acid hydroperoxide, a major reaction product formed during membrane peroxidation in plants (Williamson and Beverly. J. Cereal Sci. 8, 1988, 155-163).
To confirm that TaGST1 encoded a GST, it was expressed as a fusion protein with beta-galactosidase using the pBluescript plasmid in E. coli strain SOLR. TaGST1 clones were inoculated into LB liquid medium and were grown overnight at 37/C on all orbital shaker in the presence of IPTG. Bacteria were then pelleted by centrifugation, lysed by sonication and assayed for GST activity toward CDNB and analysed by SDS-PAGE and Western blotting using the anti-TaGSTI-I serum. With all six TaGST1 clones, GST activity toward CDNB could be determined in the crude extracts in the range 30-50 nkat/mg crude lysate.
(§2) To assay the recombinant fusion proteins for GST activity, the E. coli were grown in the presence of IPTG and then pelleted by centrifugation. The bacteria were then lysed by sonication and the protein precipitated using 80% ammonium sulphate. After resuspension and desalting, GSTs were purified by affinity chromatography. The WIC 3 fusion protein was purified using sulphobromophthalein-S-glutathione affinity chromatography (Mozer et al. Biochem. 22, 1983, 1068-1072) while the other WIC fusion proteins were purified using glutathione-agarose (Mannervik and Guthenberg. Methods Enzymol. 77 1981, 231-235).The purified enzymes were then assayed for GST activities toward herbicides (Table 3) and GST activities toward non-herbicide substrates and glutathione peroxidase activities toward organic hydroperoxides (Table 4).
A polyclonal antiserum was raised in a rabbit to a mixture of TaGST1-2 and TaGST1-3. When tested against crude extracts from safener-treated wheat shoots the antiserum recognised both the 25 kDa TaGST1 subunit and the 26 kDa safener-inducible TaGST2 and TaGST3 subunits. The antiserum was then used in conjunction with the antiserum raised to TaGST1-1 to immuno screen the cDNA library prepared from fenchlorazole ethyl treated wheat shoots as described in example 1. Duplicate lifts were taken from the plated out library and the first blot screened with the antiserum raised against TaGST1-2 and TaGST1-3. The second blot was screened with the antiserum raised to TaGST1-1. Five plaques were identified from the first blot which were absent from the second blot corresponding to cDNAs encoding TaGST2 or TaGST3 like polypeptides and theses clones were purified and the respective plasmids sequenced. […] The other three clones ICC. ICP and ICV had identical DNA sequences (SEQ ID No. 17) and predicted amino acid sequence (SEQ ID No. 18). GST ICJ was sub-cloned into the pET 11a vector after using PCR to introduce a Nde 1 restriction site into the translation start site, using the primer 5′ AGGTAGTTACATATGGCCGGAGGA 3′ (SEQ ID No. 19) in the amplification. following sub-cloning, the sequence of GST ICJ was re-checked to ensure no PCR induced errors had been introduced. The recombinant GST ICJ was then expressed in E. coli and purified by S-hexylglutathione affinity chromatography. The purified GST ICJ was assayed for activities as a GST (Table 3) and as a glutathione peroxidase (Table 4). […] GST ICV was finally expressed as the respective beta-galactosidase fusion protein using the Bluescript plasmid and assayed for GST activity (Table 3 ) and glutathione peroxidase activity (Table 4) in crude bacterial lysates. […]

[1] = GST activity toward herbicide fluorodifen (HPLC-based assay); format: biochemical
Method: as §1, §2
(§3) A polyclonal antiserum was raised in a rabbit to a mixture of TaGST1-2 and TaGST1-3. When tested against crude extracts from safener-treated wheat shoots the antiserum recognised both the 25 kDa TaGST1 subunit and the 26 kDa safener-inducible TaGST2 and TaGST3 subunits. The antiserum was then used in conjunction with the antiserum raised to TaGST1-1 to immuno screen the cDNA library prepared from fenchlorazole ethyl treated wheat shoots as described in example 1. Duplicate lifts were taken from the plated out library and the first blot screened with the antiserum raised against TaGST1-2 and TaGST1-3. The second blot was screened with the antiserum raised to TaGST1-1. Five plaques were identified from the first blot which were absent from the second blot corresponding to cDNAs encoding TaGST2 or TaGST3 like polypeptides and theses clones were purified and the respective plasmids sequenced. […] The other three clones ICC. ICP and ICV had identical DNA sequences (SEQ ID No. 17) and predicted amino acid sequence (SEQ ID No. 18). GST ICJ was sub-cloned into the pET 11a vector after using PCR to introduce a Nde 1 restriction site into the translation start site, using the primer 5′ AGGTAGTTACATATGGCCGGAGGA 3′ (SEQ ID No. 19) in the amplification. following sub-cloning, the sequence of GST ICJ was re-checked to ensure no PCR induced errors had been introduced. The recombinant GST ICJ was then expressed in E. coli and purified by S-hexylglutathione affinity chromatography. The purified GST ICJ was assayed for activities as a GST (Table 3) and as a glutathione peroxidase (Table 4). […] GST ICV was finally expressed as the respective beta-galactosidase fusion protein using the Bluescript plasmid and assayed for GST activity (Table 3 ) and glutathione peroxidase activity (Table 4) in crude bacterial lysates. The specific activity of GST ICV toward these substrates was then calculated by I) subtracting the low levels of GST and GPOX activity present due the endogenous activities in the E. coli and ii) determining the proportion of protein in the lysate present as recombinant GST ICV from SDS-PAGE analysis, by densitometry analysis of polypeptides stained with Coomassie blue.

[2] = GST activity toward herbicide fenoxaprop-ethyl (HPLC-based assay); format: biochemical
Method: as §1, §2, §3

[3] = GST activity toward herbicide metolachlor (HPLC-based assay); format: biochemical
Method: as §1, §2, §3

[4] = Glutathione peroxidase activity toward cumene hydroperoxide; format: biochemical
Method: as §2, §3

wheat shoots = test: Enhancement of GST isoenzyme expression in wheat shoots by safener fenchlorazole-ethyl; format: in vivo, Triticum aestivum L. var. Hunter
Method: Wheat seeds (Triticum aestivum L. var. Hunter) were imbibed in a 10 mg/l solution of the herbicide safener fenchlorazole-ethyl and then grown in an environmental growth room with further root-applied watering treatments of 5 mg/l fenchlorazole ethyl applied as required. At 10 days after imbibing, the shoot tissue was harvested and extracted prior to precipitation of the protein with ammonium sulphate (80% saturation). The total protein extract was then applied in the presence of 1 M ammonium sulphate to a phenyl-Sepharose column. The bound GSTs were then recovered, firstly by reducing the ammonium sulphate concentration to 0 M to yield the polar GST fraction, which represented 61% of the recovered activity toward 1-chloro-2,4-dinitrobenzene (CDNB). The remaining 39% of the GST activity was then recovered by adding ethylene glycol (50% v/v) to the running buffer to yield the hydrophobic GST fraction. […] The component polypeptides in the active fractions were then analysed by silver staining after resolution by sodium dodecyl sulphate polyacrylamide gel electrophoresis (SDS-PAGE). It was concluded that in fenchlorazole-ethyl-treated wheat the polar GSTs were composed of 25 kDa and 26 kDa polypeptides, while the hydrophobic fraction contained 25 kDa, 26 kDa and 24 kDa polypeptides. Further analysis by reversed-phase HPLC confirmed the subunit compositions (FIG. 2). Based on the combined analyses by Q-sepharose, HPLC and SDS-PAGE these GST polypeptides were named as described in Table 1, which also contains details of how these subunits associate together to form the active dimers found in plants and the relative abundance of these subunits in extracts from unsafened and fenchlorazole-ethyl treated ([…]) plants.

[5] = recombinant wheat GST expressed in E. coli, affinity purified
[6] = recombinant wheat GST expressed in E. coli, affinity purified, ± standard error
[7] = beta-galactosidase fusion in crude bacterial lysates, E. coli background subtracted, corrected for proportion of recombinant protein
[8] = isoenzymes purified from fenchlorazole-ethyl-treated wheat shoots

B1: ICR: recombinant safener-inducible type III wheat GST clone, SEQ ID No. 15, amino acid SEQ ID No. 16 (protein)
chain: MAGDGELKLLGVWTSPFVIRVRVVLNLKSLPYEYVEESLGSKSALLLGSNPVHQSVPVLLHGGRPVNESQVIVQYIDEVWAGAGPSVLPADPYERATARFWAAYVDDKVGSAWTGMLFSCKTEEERAEAVSRAVAALETLEGAFAECSKGKAFFGGDAIGFVDVVLGGYLGWFGAIDKIIGRRLIDPARTPLLARWEERFRAADAAKGVVPDDADKMLEFLPTVLAWIAGKAK
modifications: Triticum aestivum L.
GST activity toward CDNB (GST activity toward CDNB; [5]): 8139 nkat.mg^−1 | GST activity toward fluorodifen [1, 6]: 0.037 ± 0.002 nkat.mg^−1 | GST activity toward fenoxaprop-ethyl [2, 6]: 0.028 ± 0.001 nkat.mg^−1 | GST activity toward metolachlor [3, 6]: 0.000 ± 0.000 nkat.mg^−1

B2: ICC/V/P: recombinant type III wheat GST; clones ICC, ICP and ICV with identical sequence, SEQ ID No. 17, amino acid SEQ ID No. 18 (protein)
chain: MAGGEELKLLGWWAPGVSPYVLRAQMALAVKGLSYDYLPEDRWSTSDLLIASNPVYKKVPVLIHNGRPVCESLLILEYLDDAVGLAGNGKPILPADPYSRAVARFWAAYVNDKLFPSCTGILKTTKQEERAGKMEETLSGLRHLEAVMAECSEGEAEAPFFGGDAIGFLDIALGCYLPWFEAAGRLAGLGPIIDPARTPKLAAWAERFSVAEPIKALLPGVDKLEEYITTALYPKWNIAVTGN
modifications: Triticum aestivum L.
GST activity toward CDNB (GST activity toward CDNB; [7]): 30 nkat.mg^−1 | GST activity toward fluorodifen [1, 7]: 0.000 ± 0.000 nkat.mg^−1 | GST activity toward fenoxaprop-ethyl [2, 7]: 0.074 ± 0.008 nkat.mg^−1 | GST activity toward metolachlor [3, 7]: 0.000 ± 0.000 nkat.mg^−1 | Glutathione peroxidase activity toward cumene hydroperoxide [4, 7]: 0.84 ± 0.04 absorbance change at 340 nm.mg^−1

B3: TaGST1-1: wheat GST isoenzyme purified from safener-treated shoots, homodimer of 25 kDa TaGST1 subunits (SEQ ID No. 2/SEQ ID No. 2) (protein)
chain 1: MAGEKGLVLLDFWVSPFGQRVRIALAEKGLPYEYAEEDLMAGKSDRLLRANPVHKKIPVLLHDGRAVNESLIILQYLEEAFPDAPALLPSDPYARAQARFWADYVDKKVYDCGSRLWKLKGEPQAQARAEMLDILKTLDGALGDKPFFGGDKFGFVDAAFAPFTAWFHSYERYGEFSLPEVAPKIAAWAKRCGERESVAKSLYSPDKVYDFIGLLKKKYGIE
chain 2: B3 chain 1
modifications: homodimer; Triticum aestivum L.
GST activity toward CDNB (GST activity toward CDNB; [8]): 1,528 nkat.mg^−1 | GST activity toward fluorodifen [1, 8]: 0.97 nkat.mg^−1 | GST activity toward fenoxaprop-ethyl [2, 8]: 0 nkat.mg^−1 | GST activity toward metolachlor [3, 8]: 0.11 nkat.mg^−1 | % enhancement by safener (wheat shoots; fenchlorazole-ethyl treated (safened) versus unsafened wheat shoots): 30-50% | Increase in expression following exposure to fenchlorazole-ethyl (wheat shoots; leaves of wheat seedlings): approximately 50%

B4: TA 27: recombinant wheat GST from cloquintocet-mexyl-induced cDNA, SEQ ID No. 13, amino acid SEQ ID No. 14, expressed from pET 11a (protein)
chain: MEPMKVYGWAVSPWMARVLVSLEEAGADYELVPMSRNGGDHRRPEHLARNPFGEIPVLEYGGLTLYQSRAIARHILRKHKPGLLGAGSLEESAMVDVWVDVDAHHLEPVLKPIVWNCIINPFVGRDVDQGLVDESVEKLKKLLEVYEARLSSNKYLAGDFVSFADLTHFSFMRYFMATEHAVVLDAYPHVKAWWKALLARPSVKKVIAGMPPDFGFGSGRIP
modifications: Triticum aestivum L.
GST activity toward CDNB (GST activity toward CDNB; [5]): 237 nkat.mg^−1 | GST activity toward fluorodifen [1, 6]: 0.034 ± 0.003 nkat.mg^−1 | GST activity toward fenoxaprop-ethyl [2, 6]: 0.036 ± 0.004 nkat.mg^−1 | GST activity toward metolachlor [3, 6]: 0.063 ± 0.006 nkat.mg^−1 | Glutathione peroxidase activity toward cumene hydroperoxide ([4]; recombinant wheat GST, affinity purified, ± standard error (n = 3)): 3.6 ± 0.4 absorbance change at 340 nm.mg^−1
